Experiment: label from the status in PepcDB records

Row | Sequence | protein production
1 | MDRNLVQKGDAPPSKRSDPGTEFCVDIVVKGRKTEVPERFRKHVAEKLKLEKIQKLDGKVISLDVEVSKEPNPRQADRCDRVEITLRSRGPVIRAEAAASDPYAALDLAAEKLGARLRKQHDKRFSRRGARRISAAEVADHVPGAATLNGNGDVVPTEKQDGVPTKKIGSLEVQGDGPLVVREKTHVAAPMSLDQALYEMELVGHDFYLFVDSETKEPSVVYRRHAYDYGVIHLTTDTMVTQAHAPDAGDALGGLEHHHHHH | failed
2 | MDRPETIAVKCEPMTVDSPSRPLKLVVLADLNFNPPETDDLDSSIPIPTPPPITRLSNEESHQEGGILTCKEVEPGEVEAKKISKVGKCRSRSKIESSSDCGVDADGDLANQGVPASREEKISNLKMGLIHVARKMPKNAHAHFILGLMFQRLGQSQKAIPEYEKAEEILLGCEPEIARPELLLLVQIHHGQCLLLDGFGDTDSVKELEGEELEEILSKLKDSIKLDVRQAAVWNTLGLMLLKAGCLMSAISVLSSLLALVPDNYDCLANLGVAYLQSGDMELSAKCFQDLVLKDHNHPAALINYAAELLCKHSSTVAGAGANGGADASEDQKAPMNVAKECLLAALRSDPKSAHAWVNLANSYYMMGDHRSSSKCLEKAAKLDPNCMATRFAVAVQRIKDAERSQDASDQLSWAGNEMASVIREGESVPIDPPIAWAGLAMAHKAQHEIAAAFVADRNELTEMEERAVYSLKQAVTEDPEDAVRWHQLGLHSLCSQQYKLSQKYLKAAVGRSRECSYAWSNLGISLQLSDEHSEAEEVYKRALTVSKEDQAHAILSNLGNLYRQKKQYEVSKAMFSKALELKPGYAPAYNNLGLVFVAERRWEEAKSCFEKSLEADSLLDAAQSNLLKATTMSRLCTCFSSSTVVRDS | failed
3 | MDRPLSFAAVSFLATLVTLLVLMQTALVAGGPLRALVLASVGAIGTYFAIRSGVLKS | failed
4 | MDRRDYYVEYYEVLDRVLSDYVNQLREKREHWLKMGGHDVGVPLINLLFWQFTWHREEYDRLRKEGKSCGEALGSVKEILADKQVEEWERQEEEYKIYDHEWYEALAPYGGQLVIYIYNARQLVYLTPLIERLEEPVLLLSEYEIPDETELPDFVTAITLEFTKTVPLVNPFLKEWFPLIFQYANTFDILMRILQPKGLIFLEGCHYQQLLLATIGRDYGIPTLCIQQGWPSLMHTAFRRMPYRYYLMWGEGFRTLWEKHNPLPDFVPTGYMYQVEPRNETKKECVTFFLQGPFFLSDKRYLQEMIRLIGTVAAEFPARRFLVREHPEFRIGEEVRMEWEQIPNIEMVTDGKLAEVFARTRVGVAHYSSSLMEGVAHGAVPLVYDPTEGSRYSPDVEAEGLGMIAKTKEELTGGLSRILGNYEDFKQRIEKEQPLWFQATGEETLRNMVGFIKEKMPPVTLKEIYVVDTDTLTRERPVGVSGLLRCKNCEDFLEMCIDSCIDGLDELIAVYHDCTDRTPEILRQKAAQYPDKIRVFEYQPSVYPIDLDEEELEKAKLLPPDSIHTLAGYCNYALSKASYRYAVKIDADQVYFTDRLKHICDAYRSDKKVRFNVAECISYNLYRAYVDSFNRIEMRPFRWLERIALWTHASYASYLEKMIIRYKVPVSMSGINLFRKDREWMVGLGQEHPEPDSKEILPPFNGVRDTFFFEVSEDRIFRYMTETKLDGRHRGVEVMRCPNEILDVGFCWFHLRALMKEHEEGYRQSYRKHPERFIPLGTFVKLSYRNLQQRYKPFVAVRWAEPVFAYFFMTGKGRIPWKKLKEIE | failed
5 | MDRSPERRTAVMIWGALVAGPALFLVVALALPLAGEPAPGIAQPLLLVLTGLVLVEVPLSWLWAVRARLAGKAGGEAISVEEQARTRLIIAAALCEGAALFAVVVFMVTRDARALPLFAIAFGALLAHYPGDRHWARLCRGSGAGSSAPPNRLMRG | failed
6 | MDSAAPDCTAKCRSLKHALDVLSVITKGSERQIKIFLSSYCYNAATVKDAFGRNALHLVSSCGKKAVLDWLIEKGVDLLHGVSLYMQDKEGLSPLDLLMKDRPAHVVFKNTDPTEVYTWGDNTNFTLGHGSQNSKHHPELLDLFSRSRVYVKQVVLCKFHSVFLSQQGQVYTCGHGRGGRLGHGDEQTCLVPRLVEGLSGHSCSQVAAAKDHTVVLTEDGCVYTFGLNTFHQLGIIPPPSSCNVPRQSRSSKHGHNSAQLQLIPGERQLNLKKVLVSGGCMEYKVDPEHLTENGGQKICILAMDGAGRVFCWRSLSSSLKQCRWAYPRQVSISDIALNRNEILFVTQDGEGFKGKWFEDKRKNSEKKADILPNLHHSSSDVSCVSDTNSVYERIRLEKLPFAHRAVSVSTDPSGCNFAILQSDPKTSLYEIPVVSSSSFFEEFGKLLRETDEMDSFHDVTFQVGNRLFPAHKYVLAVRSDFFQKLFLSDGTLLELTDVYRKDEDAAGCHLFVVEKVHPDLFEYLLQFMYTDTCDFLTHGFKPRMIMNKKSEDSKGSPESRLHAVNCHVDDKQKSAFEVYRSNQAHTLSERQKSKPKSSKKGKGVGEDDPVKMLQNVAKKFGLSNLSSRLDGVRYENEKINVIAKKTGNKLKLSQKKCSFLYDVTMKSVDGKEFPCHKCVLCARLEYFHSMLSRSWIEASSCAALEMPIQAEILKVILDYLYTDEAVVIKESQNVDFVCSVLVVADQLLITRLKEMCEVALAENLTLKNAAMLLEFASMYNAEQLKLSCLQFIGLNMAALLEARSLDVLSEDVLKDLSIFYRKMVPAMERRVITPYQDGPDISCVQAEDGEVFLKEEISLEPNHSPWLSSSLAASPAVAPVTFASIVEEERQQEAALIRSREKPLALIQVEEHAIQDLLVFYEAFGNPDEFVIVERTPQGPVAVPMWNKHGC | failed
7 | MDSAAVAFTTLDYVIFGVYLFVIVGLGLWVSQEEEGEEKDSADYFLASKALPFWAIGSSLIAANISAEQFIGMSGSGFRVGLAIASYEWMAAVTLLVIAWFFLPIYLEKEIYTMPQFLEERYDGRVRMLLAIFWLLVYVFVNLTSVLYMGGLSINVIMGFPLWASVLGLAAVATAYSLYGGLKAVAWTDVVQVVVLVGGGLLTTWVALDAYGGSEAGVVGGFTQLMGDASGRFNMILFEGELMYRNDEGALKDAYQLLPGLSVLFGGLWVANLFYWGCNQYIIQRALAAKSLKEAQRGLAFAGYLKLLLPLIVVVPGIVAFALDAPIQRGDEAYPWLLGEYVGSGFRGLAFAALVAAIISSLASMMNSASTIFTMDLYRNYTSREDVSERRLVRIGRAVALICIVVAAALAPQLADLDQVFQYIQEYTGFVSPGVLAIFVLGLFWSKATPNAALVSAVLSIPLSAAFKFWTPGVAFLNRMLIVFFISVALIVAISLLENEGEDHPKAIDVGGIERERDPIYNVAAFGILAITAALYAFFW | failed
8 | MDSFKVVLEGPAPWGFRLQGGKDFNVPLSISRLTPGGKAAQAGVAVGDWVLSIDGENAGSLTHIEAQNKIRACGERLSLGLSRAQPAQSKPQKALTPPADPPRYTFAPSASLNKTARPFGAPPPTDSALSQNGQLLRQLVPDASKQRLMENTEDWRPRPGTGQSRSFRILAHLTGTEFMQDPDEEFMKKSSQVPRTEAPAPASTIPQESWPGPTTPSPTSRPPWAVDPAFAERYAPDKTSTVLTRHSQPATPTPLQNRTSIVQAAAGGGTGGGSNNGKTPVCHQCHKIIRGRYLVALGHAYHPEEFVCSQCGKVLEEGGFFEEKGAIFCPSCYDVRYAPSCAKCKKKITGEIMHALKMTWHVPCFTCAACKTPIRNRAFYMEEGAPYCERDYEKMFGTKCRGCDFKIDAGDRFLEALGFSWHDTCFVCAICQINLEGKTFYSKKDKPLCKSHAFSHV | failed
9 | MDSFMESLNRLKEAHEKEVLGLQNKLLELNSERCRDAQRVEELFAKNHQLREQQKALKENLRVLENRLRAGLCDRCMVTQELARKKQLELENAHLQSLQHLCILTNEMNGLREENKILKEEVKRLRSLGDKTAPQAWEGTSEPPSPLPLPSPRQASGPP | failed
10 | MDSGESGPQQWAGVVKVNDRMGYVTFTDAAGTELIPTNTIPVTLNARMAYIYCQVDEGQDLSTNPKSIKITLLADPTGIDATAITTPKVGESGDVTTNAPVGSLSFVSGYSTVAPFQFSENTIVLPVLYRVKNVTTTEDIKNELAKHTFTLVCYTDDIKSGDTILKLYLRYKVEDEPAAIAERATRTSSFKAYEISQILREYTLKSGQTKPAKITIVAQQNEYNNKLEDTSTIEKVYEIEYKTAE | not failed
11 | MDSKEGKLTVIGEFDEMQILKKLKKRWESAKMATFGPFDPKKEAETAAAAEKKKKEENEREREREREEALYRSQSHHDTPVCPMHHHTTIVCDHDHGCIIS | failed
12 | MDSKIDFSSYSLNDLYSSAESIDRDVYPERAKEIDGLIRQKEAEFPEEIDTTKDIGEKATKSDRLMAAIIDGVIGIISLVPVIFYVGFDSFKEPSLSLLGILFIYGVFVTMVLHGYLLYYYGQTIGKNYMSIRIENLDGTKASLATIYFKRMLPMQLIGLIPSFGQFISGIVNPLFIFGKQRRCLHDYLAKTKVSYTGT | failed
13 | MDSPIINEQFWDALFFNGTMPWDRSQTPNELKHYLKRIADKTHSVFIPGCGAAYEVSHFVDCGHDVIAMDYSAEAVNLAKSQLGQHQDKVMLGDVFNADFSREFDVIYERAFLAALPREIWGDYFAMIERLLPSNGLLVGYFVISDDYRSRFPPFCLRSGEIEQKLEANFHLIESTPVTDSVDVFKGKEQWMVWQKLEHHHHHH | failed
14 | MDSYSITNVKYLDPTELHRWMQEGHTTTLREPFQVVDVRGSDYMGGHIKDGWHYAYSRLKQDPEYLRELKHRLLEKQADGRGALNVIFHCMLSQQRGPSAAMLLLRSLDTAELSRCRLWVLRGGFSRWQSVYGDDESVTAGYLPDLWR | not failed
15 | MDTAEIEADQRALQHASVEGTTETPGNAQSSTNDDVIKATVDQIVAQILSESAERKATEEGKTGKAADDVKNTPESGEDANKAAAKEPSGTPVAASSEATVPAPGSASSSNSPLPGTPPKYSNPHNLTIGARLEALSVEGNWLPARIVEVNETEQTLLVRFERNHKLKVSPSTSGSFQEWMAIKSERLRQRLSNRVLPVFELDEKCMARWSGPRKFPGTIRKLLGNDTYEVLFDDGYVKNVRAVHMNKMPKQLPPVQVAEEGASKSPTPVGTPVSSAPVAPKRASTGSLGGSSGSSGSKKSKCAPQRRDWPLLDMASLDIASLGLPEIPHDGEWTCHWVNDQPIGTEGFLIVGEHQKPTVIVQDWRLPPGWIKHMYQRSNVLGKWDVILVSPSGKRFRSKSDLKLFLESQNLVYNPDVYDFSIHRRRAKDINAYVYTHGYNPQPPPKPRPMDVSMNSTLDQSITSQHSLPSTPMPVKESQYMEAPVASLMPPAELMSPQTQPADETKPKIEAEILEASEGGTSQLMLADPHVVENGFAFIGGLKVKIQDNLYVCPREDCAKTYRKEDFLLIHIRHYHKEFAEHVSHCPKMQELAVKRTHPSSIDQVEAVPKNQIPNQQFFAKMHQQDLQQSRSFKRQSVSATATSSTPSDITPTKALLSPKMEPPSVSPTVESGIKQEDVSLDAGPTQSFNPSLSRSCKRARLSPSKRPSGSRKSNRQRSQRRPILSDNPAGHGLTEQDVEETRQSFNTPTPDTRIDSKKRRSGAATTPISSIDSPAMGDSVSTPSSNDQTDINAALAPPPAETLSKAPQYIKENGELIRIVRMRQEEIINCICEYGEEDGLMIQCELCLCWQHGACNGIVKEADVPDKYVCYICRNPQRGRDSMRFKHDQDWLFEGKLPVAAYHTANPQATKQFELLKRSHTLTGNLLDAKRSMHSLLVKINIARNRCHPKLYLWAKKWDEDNLDSTALTPVKRAKLEAPDLPNVPQPEAAIDPEECQYRLIEHIKVQQSLVLDRLNDIEAEMDELEKEDTLDDLKDADISTTKEALATFIKELETMKRLAKLNQVANMKQTLRDSATSK | failed
16 | MDTAKTKPFDEMFLQDEVIRPIYAEYAAWLQDVPHQQLESKRQEAELLFRRVGITFNVYGEDAGAERLIPFDVVPRILSASEWARLSDGAIQRVKALNMFLHDVYHDQEIIKAGIVPSSILANAQYRPEMFGVDVPGGVYAHIAGVDLVRTGENDFYVLEDNLRTPSGVSYMLENRKMMMRLFPELFRRYPVAPVEHYPQVLLNNLRAVAQAGVHEPTVVLLTPGAYNSAYFEHAFIAQQMGIELVEGQDLFVRNNAVYMRTTEGPKRVDVIYRRIDDDFIDPLSFRPDSMLGVPGLLSVYRNGGVTLANAVGTGVADDKDTYIYVPEMIRFYLGEEPILSNVPTYQLSKADDLKYVLDNLAELVVKEVQGSGGYGMLVGPAASKQELEDFRQRILANPANYIAQPTLALSTCPTLVETGIAPRHVDLRPFVLSGKTVSLVPGALCRVALREGSLVVNSSQGGGTKDTWILKD | not failed
